Reference: publication doi:10.1101/2021.12.31.474618

Biological target: OsCBMIP-His (OsRMC-His), secreted from rice suspension-cultured cells (rice)
Test: BLI

MoCel6A as used for binding kinetics (BLItz) (enzyme)
Kd: 21.9 nM
koff: 0.000845 s⁻¹
kon: 38900 M⁻¹ s⁻¹
